Source: patent US20050080013A1 (Pfizer, published 2005)
Non-standard residues stand in square brackets, D forms with d. No end group written: not given here. Orn = NCCC[C@H](N)C(=O)O

B1: peptide 177 (peptide)
peptide: GVLELFLNLLERLLDALQKKLK
B2: peptide 178 (peptide)
peptide: PVLELFDNLLEKLLEALQKKLR
B3: peptide 179 (peptide)
peptide: PVLELFDNLLERLLDALQKKLK
B4: peptide 180 (peptide)
peptide: PVLELFDNLLDKLLDALQKKLR
B5: peptide 181 (peptide)
peptide: PVLELFENLLERWLDALQKKLK
B6: peptide 182 (peptide)
peptide: PVLELFENLLEKLLEALQKKLK
B7: peptide 16 (peptide)
peptide: PVLDLLRELLNELLEALKQKLK
B8: peptide 183 (peptide)
peptide: PLLELFENLLEKLLDALQKKLK
B9: peptide 184 (peptide)
peptide: PVLELFLNLLERLLDAWQKKLK
B10: peptide 185 (peptide)
peptide: PVLELFENLLERLLDALQ[Orn][Orn]L[Orn]
B11: peptide 191 (peptide)
peptide: Ac-PVLDLLRELLEELKQKLK-NH2
B12: peptide 192 (peptide)
peptide: Ac-PVLDLFKELLEELKQKLK-NH2
B13: peptide 193 (peptide)
peptide: Ac-PVLDLFRELLEELKQKLK-NH2
B14: peptide 194 (peptide)
peptide: Ac-PVLELFRELLEELKQKLK-NH2
B15: peptide 195 (peptide)
peptide: Ac-PVLELFKELLEELKQKLK-NH2
B16: peptide 196 (peptide)
peptide: Ac-PVLDLFRELLEELKNKLK-NH2
B17: peptide 197 (peptide)
peptide: Ac-PLLDLFRELLEELKQKLK-NH2
B18: peptide 17 (peptide)
peptide: PVLELFKELLQELLEALKQKLK
B19: peptide 198 (peptide)
peptide: Ac-GVLDLFRELLEELKQKLK-NH2
B20: peptide 199 (peptide)
peptide: Ac-PVLDLFRELWEELKQKLK-NH2
B21: peptide 200 (peptide)
peptide: Ac-NVLDLFRELLEELKQKLK-NH2
B22: peptide 201 (peptide)
peptide: Ac-PLLDLFKELLEELKQKLK-NH2
B23: peptide 202 (peptide)
peptide: Ac-PALELFKDLLEELRQKLR-NH2
B24: peptide 203 (peptide)
peptide: Ac-AVLDLFRELLEELKQKLK-NH2
B25: peptide 204 (peptide)
peptide: Ac-PVLDFFRELLEELKQKLK-NH2
B26: peptide 205 (peptide)
peptide: Ac-PVLDLFREWLEELKQKLK-NH2
B27: peptide 206 (peptide)
peptide: Ac-PLLELLKELLEELKQKLK-NH2
B28: peptide 207 (peptide)
peptide: Ac-PVLELLKELLEELKQKLK-NH2
B29: peptide 18 (peptide)
peptide: GVLDLFRELLNELLEALKQKLK
B30: peptide 208 (peptide)
peptide: Ac-PALELFKDLLEELRQRLK-NH2
B31: peptide 209 (peptide)
peptide: PVLDLFRELLNELLQKLK
B32: peptide 210 (peptide)
peptide: PVLDLFRELLEELKQKLK
B33: peptide 211 (peptide)
peptide: Ac-PVLDLFRELLEEL[Orn]Q[Orn]L[Orn]-NH2
SMILES: CC(=O)N1CCC[C@H]1C(=O)N[C@H](C(=O)N[C@@H](CC(C)C)C(=O)N[C@@H](CC(=O)O)C(=O)N[C@@H](CC(C)C)C(=O)N[C@@H](Cc1ccccc1)C(=O)N[C@@H](CCCNC(=N)N)C(=O)N[C@@H](CCC(=O)O)C(=O)N[C@@H](CC(C)C)C(=O)N[C@@H](CC(C)C)C(=O)N[C@@H](CCC(=O)O)C(=O)N[C@@H](CCC(=O)O)C(=O)N[C@@H](CC(C)C)C(=O)N[C@@H](CCCN)C(=O)N[C@@H](CCC(N)=O)C(=O)N[C@@H](CCCN)C(=O)N[C@@H](CC(C)C)C(=O)N[C@@H](CCCN)C(N)=O)C(C)C
B34: peptide 212 (peptide)
peptide: Ac-PVLDLF[Orn]ELLEEL[Orn]Q[Orn]LK-NH2
SMILES: CC(=O)N1CCC[C@H]1C(=O)N[C@H](C(=O)N[C@@H](CC(C)C)C(=O)N[C@@H](CC(=O)O)C(=O)N[C@@H](CC(C)C)C(=O)N[C@@H](Cc1ccccc1)C(=O)N[C@@H](CCCN)C(=O)N[C@@H](CCC(=O)O)C(=O)N[C@@H](CC(C)C)C(=O)N[C@@H](CC(C)C)C(=O)N[C@@H](CCC(=O)O)C(=O)N[C@@H](CCC(=O)O)C(=O)N[C@@H](CC(C)C)C(=O)N[C@@H](CCCN)C(=O)N[C@@H](CCC(N)=O)C(=O)N[C@@H](CCCN)C(=O)N[C@@H](CC(C)C)C(=O)N[C@@H](CCCCN)C(N)=O)C(C)C
B35: peptide 213 (peptide)
peptide: Ac-PALELFKDLLEEFRQRLK-NH2
B36: peptide 214 (peptide)
peptide: Ac-[dP]VLDLFRELLEELKQKLK-NH2
SMILES: CC(=O)N1CCC[C@@H]1C(=O)N[C@H](C(=O)N[C@@H](CC(C)C)C(=O)N[C@@H](CC(=O)O)C(=O)N[C@@H](CC(C)C)C(=O)N[C@@H](Cc1ccccc1)C(=O)N[C@@H](CCCNC(=N)N)C(=O)N[C@@H](CCC(=O)O)C(=O)N[C@@H](CC(C)C)C(=O)N[C@@H](CC(C)C)C(=O)N[C@@H](CCC(=O)O)C(=O)N[C@@H](CCC(=O)O)C(=O)N[C@@H](CC(C)C)C(=O)N[C@@H](CCCCN)C(=O)N[C@@H](CCC(N)=O)C(=O)N[C@@H](CCCCN)C(=O)N[C@@H](CC(C)C)C(=O)N[C@@H](CCCCN)C(N)=O)C(C)C
B37: peptide 215 (peptide)
peptide: Ac-PVLDLFRELLEEWKQKLK-NH2
B38: peptide 216 (peptide)
peptide: PVLELFKELLEELKQKLK
B39: peptide 217 (peptide)
peptide: PVLDLFRELLELLKQKLK
B40: peptide 19 (peptide)
peptide: [dP]VLDLFRELLNEGLEALKQKLK
B41: peptide 218 (peptide)
peptide: Ac-PVLDLFRELLNELLQKLK-NH2
B42: peptide 219 (peptide)
peptide: PVLDLFRELLNELWQKLK
B43: peptide 220 (peptide)
peptide: PVLDLFRELLEELQKKLK
B44: peptide 221 (peptide)
peptide: Ac-DVLDLFRELLEELKQKLK-NH2
B45: peptide 222 (peptide)
peptide: PVLDAFRELLEALLQLKK
B46: peptide 223 (peptide)
peptide: PVLDAFRELLEALAQLKK
B47: peptide 224 (peptide)
peptide: PVLDLFREGWEELKQKLK
B48: peptide 225 (peptide)
peptide: PVLDAFRELAEALAQLKK
B49: peptide 226 (peptide)
peptide: PVLDAFRELGEALLQLKK
B50: peptide 227 (peptide)
peptide: Ac-PVLDLFRELGEELKQKLK-NH2
B51: peptide 2 (peptide)
peptide: GVLDLFRELLNELLEALKQKLKK

biological target: T1, lecithin:cholesterol acyltransferase (LCAT), purified from human plasma (human, UniProt P04180 25-440); assay: cell-based or functional assay
T1 sequence (looked up): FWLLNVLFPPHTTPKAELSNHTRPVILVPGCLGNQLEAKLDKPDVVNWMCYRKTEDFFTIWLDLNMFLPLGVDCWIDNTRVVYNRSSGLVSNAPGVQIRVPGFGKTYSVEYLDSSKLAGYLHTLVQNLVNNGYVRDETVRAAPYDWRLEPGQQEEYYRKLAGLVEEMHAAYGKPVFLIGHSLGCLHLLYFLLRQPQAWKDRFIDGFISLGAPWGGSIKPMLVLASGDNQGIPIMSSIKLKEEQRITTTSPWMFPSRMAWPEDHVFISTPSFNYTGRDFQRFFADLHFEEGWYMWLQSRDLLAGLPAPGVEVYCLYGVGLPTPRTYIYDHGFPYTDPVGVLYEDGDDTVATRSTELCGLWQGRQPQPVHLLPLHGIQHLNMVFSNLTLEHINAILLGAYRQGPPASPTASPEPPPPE

Binder	ACTIVITY (%) LCAT
B1	10%
B2	9%
B3	8%
B4	8%
B5	8%
B6	7%
B7	59%
B8	6%
B9	4%
B10	3%
B11	100%
B12	100%
B13	96%
B14	88%
B15	87%
B16	81%
B17	81%
B18	59%
B19	80%
B20	76%
B21	75%
B22	74%
B23	70%
B24	66%
B25	63%
B26	60%

Binder	ACTIVITY (%) LCAT
B27	57%
B28	50%
B29	58%
B30	48%
B31	47%
B32	46%
B33	45%
B34	43%
B35	42%
B36	39%
B37	38%
B38	35%
B39	30%
B40	58%
B41	29%
B42	24%
B43	22%
B44	12%
B45	8%
B46	8%
B47	8%
B48	1%
B49	1%
B50	0%
B51	105%
